Experimental data published in patent US20110171259A1 (priority 2008, published 2011).
Entries after “also recorded” stand apart in the source; their conditions may differ. Ends that are not written are not given here.

What was measured:
[1] = test system: SFV (A/New Calcdonia/20/99); assay: Influenza-specific serum IgG ELISA after nasal instillation of SFV with Lip peptide MC58; type: in vivo, C57BL/6 mice; conditions: 3 μg SFV + 10 μg peptide nasally Day 0 and Day 14, sera Day 28, versus SFV alone; FIG. 6
Method: On day 28, mice were euthanized and exsanguinated by cardiac puncture. Influenza-specific IgG levels were measured in sera collected at Day 28 by ELISA using (A/New Calcdonia/20/99) SFV as solid-phase antigen.

human TLR 1 and 2 = human TLR 1 and 2 (Homo sapiens, UniProt O60603+Q15399); assay: NF-κB SEAP reporter assay in HEK293 cells expressing TLR 1 and 2; conditions: TLR1/2-expressing HEK293 cells; 0, 0.01, 0.1, 1.0 μg; 5 hours exposure; FIG. 3; listed as Lip peptide lipidated MC58
Toll-Like Receptor 2 = biological target: T1, Toll-Like Receptor 2 (Homo sapiens, UniProt O60603+Q15399); conditions: Fisette et al., 2003; cited from earlier work
T1 construct: host or cells: epithelial cells

TLR4/MD2/CD14 = TLR4/MD2/CD14 (Homo sapiens, UniProt O00206); assay: NF-κB SEAP reporter assay in HEK293 cells expressing TLR4/MD2/CD14; conditions: FIG. 5
split-flu vaccine (SFV) = type: in vivo, C57BL/6 mice; conditions: 3 μg SFV + 0.35 μg or 1.0 μg Lip protein nasally Day 0 and Day 14, Day 28 sera, versus SFV alone; batch 1 and batch 2; FIG. 7 and 8

T1 sequence (O60603 21-784, species assumed): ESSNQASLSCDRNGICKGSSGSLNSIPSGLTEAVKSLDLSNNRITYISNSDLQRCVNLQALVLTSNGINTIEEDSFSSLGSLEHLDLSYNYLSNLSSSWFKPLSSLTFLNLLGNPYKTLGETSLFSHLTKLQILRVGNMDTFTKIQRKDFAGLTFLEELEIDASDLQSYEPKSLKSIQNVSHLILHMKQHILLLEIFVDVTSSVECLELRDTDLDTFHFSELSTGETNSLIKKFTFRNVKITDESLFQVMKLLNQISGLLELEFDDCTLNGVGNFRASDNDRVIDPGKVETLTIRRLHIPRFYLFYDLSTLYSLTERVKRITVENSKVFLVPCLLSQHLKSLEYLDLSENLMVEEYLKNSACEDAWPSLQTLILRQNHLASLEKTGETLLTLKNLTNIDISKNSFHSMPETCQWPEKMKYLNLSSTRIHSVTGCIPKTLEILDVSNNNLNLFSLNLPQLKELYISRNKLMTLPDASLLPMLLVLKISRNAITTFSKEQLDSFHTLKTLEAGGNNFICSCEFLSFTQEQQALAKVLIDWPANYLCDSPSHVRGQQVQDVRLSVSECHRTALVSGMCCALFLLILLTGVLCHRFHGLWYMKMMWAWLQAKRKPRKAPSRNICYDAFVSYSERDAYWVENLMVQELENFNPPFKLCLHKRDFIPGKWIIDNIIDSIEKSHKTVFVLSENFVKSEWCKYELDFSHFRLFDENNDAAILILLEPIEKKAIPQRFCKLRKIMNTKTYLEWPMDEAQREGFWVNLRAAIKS
T1 sequence (Q15399 25-786, species assumed): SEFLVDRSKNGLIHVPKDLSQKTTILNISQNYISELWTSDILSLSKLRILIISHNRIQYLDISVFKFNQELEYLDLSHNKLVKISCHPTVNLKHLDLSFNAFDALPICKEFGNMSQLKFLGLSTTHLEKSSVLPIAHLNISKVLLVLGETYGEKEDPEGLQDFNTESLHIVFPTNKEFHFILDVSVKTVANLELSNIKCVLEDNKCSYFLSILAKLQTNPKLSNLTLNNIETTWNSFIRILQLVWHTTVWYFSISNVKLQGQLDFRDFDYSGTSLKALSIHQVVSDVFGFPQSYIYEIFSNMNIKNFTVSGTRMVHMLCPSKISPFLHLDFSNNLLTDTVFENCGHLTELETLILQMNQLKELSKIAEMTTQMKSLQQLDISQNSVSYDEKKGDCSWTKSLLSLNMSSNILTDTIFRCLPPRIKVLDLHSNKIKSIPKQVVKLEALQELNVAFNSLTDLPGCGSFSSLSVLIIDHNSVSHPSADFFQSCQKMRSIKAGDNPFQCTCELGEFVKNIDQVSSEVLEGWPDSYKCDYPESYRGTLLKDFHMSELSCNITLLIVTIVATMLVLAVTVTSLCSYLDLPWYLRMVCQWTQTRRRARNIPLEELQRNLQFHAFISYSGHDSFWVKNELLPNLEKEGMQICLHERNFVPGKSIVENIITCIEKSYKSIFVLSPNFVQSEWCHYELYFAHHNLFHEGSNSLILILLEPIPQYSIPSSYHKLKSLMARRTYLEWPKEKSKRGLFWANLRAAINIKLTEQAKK
human TLR 1 and 2, sequence (O60603 21-784): as the sequence (O60603 21-784, species assumed) above
human TLR 1 and 2, sequence (Q15399 25-786): as the sequence (Q15399 25-786, species assumed) above
TLR4/MD2/CD14, sequence (O00206 24-839): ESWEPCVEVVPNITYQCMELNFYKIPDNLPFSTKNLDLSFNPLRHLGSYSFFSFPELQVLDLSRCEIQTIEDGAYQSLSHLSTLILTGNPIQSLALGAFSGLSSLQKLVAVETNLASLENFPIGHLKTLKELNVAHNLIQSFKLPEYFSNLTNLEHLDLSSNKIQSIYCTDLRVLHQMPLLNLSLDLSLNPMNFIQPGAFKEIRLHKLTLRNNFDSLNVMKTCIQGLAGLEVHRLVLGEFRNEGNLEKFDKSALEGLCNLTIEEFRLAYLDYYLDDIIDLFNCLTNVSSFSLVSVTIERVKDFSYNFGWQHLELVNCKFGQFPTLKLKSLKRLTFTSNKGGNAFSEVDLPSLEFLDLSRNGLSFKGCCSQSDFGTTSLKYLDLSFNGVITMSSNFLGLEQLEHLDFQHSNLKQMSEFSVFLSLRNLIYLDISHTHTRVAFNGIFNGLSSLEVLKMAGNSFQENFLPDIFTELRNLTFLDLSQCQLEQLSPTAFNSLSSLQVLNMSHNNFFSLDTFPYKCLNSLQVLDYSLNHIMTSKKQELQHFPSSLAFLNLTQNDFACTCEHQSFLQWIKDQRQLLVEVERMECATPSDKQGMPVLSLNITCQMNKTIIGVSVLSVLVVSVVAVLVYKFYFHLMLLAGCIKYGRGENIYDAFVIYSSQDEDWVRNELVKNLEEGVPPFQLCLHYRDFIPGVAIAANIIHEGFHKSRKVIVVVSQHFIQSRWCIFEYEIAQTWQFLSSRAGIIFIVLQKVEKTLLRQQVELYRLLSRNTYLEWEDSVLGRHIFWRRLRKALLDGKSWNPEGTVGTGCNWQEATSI
TLR4/MD2/CD14, sequence (Q9Y6Y9 19-160 partner): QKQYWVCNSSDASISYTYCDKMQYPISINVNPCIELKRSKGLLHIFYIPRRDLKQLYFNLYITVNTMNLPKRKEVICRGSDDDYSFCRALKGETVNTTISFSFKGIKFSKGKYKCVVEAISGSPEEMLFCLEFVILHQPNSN

## Pam3Cys-GGEKAAEAPAAEAP [Lip peptide MC58]
[1]
  serum influenza-specific IgG levels: statistically significant higher levels
Human TLR 1 and 2
  NF-κB activation (relative 650 nm optic density, SEAP): mainly TLR1 and 2 agonists

## Pam3Cys-GGEKAAEAPAAEAS [Lip peptide F62, triacylated Lip peptide from N. gonorrhoeae F62]
Toll-Like Receptor 2
  production of inflammatory cytokines: can stimulate

B1: Lip protein: Lip protein purified from Neisseria meningitidis (strain 8047) Proteosome preparation (protein)
chain: MKAYLALISAAVIGLAACSQEPAAPAAEATPAAEAPASEAPAAEAAPADAAEAPAAGNCAATVESNDNMQFNTKDIQVSKACKEFTITLKHTGTQPKTSMGHNIVIGKTEDMDGIFKDGVGAADTDYVKPDDARVVAHTKLIGGGEESSLTLDPAKLADGDYKFACTFPGHGALMNGKITLVD
modifications: N.meningitidis
notes: Lip protein purified from Neisseria meningitidis (strain 8047) Proteosome preparation
TLR4/MD2/CD14
  NF-κB activation: no significant increase
split-flu vaccine (SFV)
  antigen-specific IgG levels in sera: statistically significant (p<0.001 and p<0.01) higher levels; also recorded: significantly higher than the SFV alone
